These results are taken from patent publication US20240352434, “COMPOSITIONS COMPRISING A VARIANT CAS12I3 POLYPEPTIDE AND USES THEREOF” (Arbor Biotechnologies, Inc., published 2024).

Substitutions are numbered along the chain they refer to.

Data set [1] addresses T1, Cas12i3 S536R K583R N711R C724R (Unidentified, S536R,K583R,N711R,C724R).
T1 chain: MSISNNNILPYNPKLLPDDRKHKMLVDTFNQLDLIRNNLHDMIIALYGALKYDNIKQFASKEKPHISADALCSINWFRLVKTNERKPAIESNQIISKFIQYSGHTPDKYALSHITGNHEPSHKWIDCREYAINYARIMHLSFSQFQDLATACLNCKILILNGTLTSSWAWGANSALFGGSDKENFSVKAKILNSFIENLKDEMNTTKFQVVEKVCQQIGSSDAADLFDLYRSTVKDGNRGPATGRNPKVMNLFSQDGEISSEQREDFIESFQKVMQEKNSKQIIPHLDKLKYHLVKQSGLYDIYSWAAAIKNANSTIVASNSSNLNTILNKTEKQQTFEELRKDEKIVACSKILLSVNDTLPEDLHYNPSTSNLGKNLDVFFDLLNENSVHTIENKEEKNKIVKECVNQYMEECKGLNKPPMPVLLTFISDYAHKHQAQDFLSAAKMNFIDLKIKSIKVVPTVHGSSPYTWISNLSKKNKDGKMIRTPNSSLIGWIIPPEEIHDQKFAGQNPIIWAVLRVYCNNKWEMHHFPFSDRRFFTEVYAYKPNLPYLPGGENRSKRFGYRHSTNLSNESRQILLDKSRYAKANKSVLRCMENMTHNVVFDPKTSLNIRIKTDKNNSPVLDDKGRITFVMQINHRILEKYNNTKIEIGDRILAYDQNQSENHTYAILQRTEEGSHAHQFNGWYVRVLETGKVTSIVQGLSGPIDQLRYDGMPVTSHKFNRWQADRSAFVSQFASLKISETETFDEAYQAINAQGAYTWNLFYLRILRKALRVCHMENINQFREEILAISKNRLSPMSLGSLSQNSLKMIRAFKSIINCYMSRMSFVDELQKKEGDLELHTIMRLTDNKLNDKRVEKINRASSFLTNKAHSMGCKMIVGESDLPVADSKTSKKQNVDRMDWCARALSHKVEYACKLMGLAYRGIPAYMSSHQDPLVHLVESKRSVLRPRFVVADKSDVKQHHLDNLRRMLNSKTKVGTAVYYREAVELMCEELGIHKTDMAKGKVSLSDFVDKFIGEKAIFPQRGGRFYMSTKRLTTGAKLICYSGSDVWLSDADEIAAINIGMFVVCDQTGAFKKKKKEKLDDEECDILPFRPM
Kind of data set: cell_activity; fold change in % indels, HEK293T; PAM not stated in example. An outline of the steps:
(§1)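 HEK293T cells lipofected with Lipofectamine 2000 (crRNA omitted in negative controls). Harvested 72 h post-transfection and lysed in QuickExtract. Target loci amplified by two-round PCR and sequenced on NextSeq (150 cycles) to quantify % indels.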

Data set [2] concerns the target T2, Cas12i3 S536R N711R S801R (Unidentified, S536R,N711R,S801R).
T2 chain: T1 chain with R583K, R724C, S801R
Described as above. An outline of the steps:
as §1

B1: VEGFA_T2 crRNA ; VEGFA_T2 target (ssRNA ; dsDNA)
RNA: AUAGUGUGUCCUUAGUUGACAUAAUCCUCCACCAGUCAUGGU
DNA 1: AATCCTCCACCAGTCATGGT
DNA 2: ACCATGACTGGTGGAGGATT
With B1, the results for the binding signal in data set [1] and in data set [2] were 1.1 fold of wild-type and 2.55 fold of wild-type, respectively.

B2: EMX1_T5 crRNA ; EMX1_T5 target (ssRNA ; dsDNA)
RNA: AUAGUGUGUCCUUAGUUGACAUUAUUAUUCCCAUAGGGAAGG
DNA 1: TATTATTCCCATAGGGAAGG
DNA 2: CCTTCCCTATGGGAATAATA
For B2, the binding signal in data set [1] is 0.72 fold of wild-type; in data set [2], 1.68 fold of wild-type.

B3: AAVS1_T3 crRNA ; AAVS1_T3 target (ssRNA ; dsDNA)
RNA: AUAGUGUGUCCUUAGUUGACAUGUGAGAAUGGUGCGUCCUAG
DNA 1: GTGAGAATGGTGCGTCCTAG
DNA 2: CTAGGACGCACCATTCTCAC
For B3, the binding signal was 0.8 fold of wild-type in data set [1] and 2.1 fold of wild-type in data set [2].
